Values quoted from earlier work in patent US5591427A, “Human Interleukin-3(Il-3) variants and their use to promote or antagonize IL-3-mediated processes” (Medvet Science Pty. Ltd., priority 1979, dated 1997).

What was measured:
IL-3 receptor = molecular target: T1, IL-3 receptor (Homo sapiens, UniProt P26951+P32927); conditions: E. coli expressed variants, literature; cited from earlier work
T1 sequence (P26951 19-378): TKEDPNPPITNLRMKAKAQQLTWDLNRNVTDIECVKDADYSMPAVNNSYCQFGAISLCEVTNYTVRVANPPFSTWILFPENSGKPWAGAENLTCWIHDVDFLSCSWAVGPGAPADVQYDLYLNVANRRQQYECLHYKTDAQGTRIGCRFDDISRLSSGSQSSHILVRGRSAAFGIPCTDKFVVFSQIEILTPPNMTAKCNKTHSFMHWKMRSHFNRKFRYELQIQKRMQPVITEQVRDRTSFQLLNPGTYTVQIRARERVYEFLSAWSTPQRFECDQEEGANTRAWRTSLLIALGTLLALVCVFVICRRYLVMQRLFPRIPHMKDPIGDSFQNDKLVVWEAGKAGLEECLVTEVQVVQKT
T1 sequence (P32927 17-897): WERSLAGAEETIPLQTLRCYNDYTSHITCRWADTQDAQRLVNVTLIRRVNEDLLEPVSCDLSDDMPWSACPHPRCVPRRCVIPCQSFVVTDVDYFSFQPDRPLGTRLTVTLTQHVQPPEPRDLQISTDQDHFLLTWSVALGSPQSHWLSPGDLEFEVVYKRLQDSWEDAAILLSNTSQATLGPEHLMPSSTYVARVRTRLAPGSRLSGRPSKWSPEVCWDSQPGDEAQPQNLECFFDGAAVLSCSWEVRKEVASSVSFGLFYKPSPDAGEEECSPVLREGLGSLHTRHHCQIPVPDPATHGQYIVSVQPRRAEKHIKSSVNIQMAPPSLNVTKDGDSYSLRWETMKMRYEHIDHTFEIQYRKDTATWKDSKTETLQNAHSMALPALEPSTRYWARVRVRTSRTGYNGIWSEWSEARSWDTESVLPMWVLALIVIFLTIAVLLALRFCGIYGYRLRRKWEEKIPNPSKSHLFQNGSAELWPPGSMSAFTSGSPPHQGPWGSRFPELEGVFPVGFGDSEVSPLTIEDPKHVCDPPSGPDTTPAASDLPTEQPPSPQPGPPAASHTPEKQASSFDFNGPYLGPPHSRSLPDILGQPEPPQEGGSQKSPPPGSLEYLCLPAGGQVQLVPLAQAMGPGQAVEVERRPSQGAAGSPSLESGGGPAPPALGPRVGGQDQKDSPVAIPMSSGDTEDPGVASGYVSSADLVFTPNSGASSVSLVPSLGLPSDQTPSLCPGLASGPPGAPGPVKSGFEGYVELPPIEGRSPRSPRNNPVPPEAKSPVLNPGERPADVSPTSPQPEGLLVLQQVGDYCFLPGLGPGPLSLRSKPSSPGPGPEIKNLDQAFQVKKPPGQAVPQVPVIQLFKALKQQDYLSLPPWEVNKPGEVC

M-07 cell line = conditions: E. coli expressed variants, literature; cited from earlier work

B1: Gly 33: literature hIL-3 variant in which Pro 33 was substituted with Gly (Lokker et al, 1991a) (protein, UniProt P08700 20-152, looked up, variant P33G)
Interleukin-3: APMTQTTPLKTSWVNCSNMIDEIITHLKQPPLGLLDFNNLNGEDQDILMENNLRRPNLEAFNRAVKSLQNASAIESILKNLLPCLPLATAAPTRHPIHIKDGDWNEFRRKLTFYLKTLENAQAQQTTLSLAIF
receptor binding capacity (IL-3 receptor): without a significant modification | proliferation activity, M-07 cells (M-07 cell line): enhanced proliferation activity
